Here are results for ten molecules from article PMC10828496 (Cell Discovery, 2024).

The Kd is the equilibrium constant for the complex coming apart.

For series [1], the target named is T1, METTL15^70–407 (Homo sapiens, UniProt A6NJ78).
T1 construct: residues 70-407; N-terminal SUMO tag cleaved with ULP1; E. coli Rosetta (DE3)
T1 sequence (A6NJ78 70-407): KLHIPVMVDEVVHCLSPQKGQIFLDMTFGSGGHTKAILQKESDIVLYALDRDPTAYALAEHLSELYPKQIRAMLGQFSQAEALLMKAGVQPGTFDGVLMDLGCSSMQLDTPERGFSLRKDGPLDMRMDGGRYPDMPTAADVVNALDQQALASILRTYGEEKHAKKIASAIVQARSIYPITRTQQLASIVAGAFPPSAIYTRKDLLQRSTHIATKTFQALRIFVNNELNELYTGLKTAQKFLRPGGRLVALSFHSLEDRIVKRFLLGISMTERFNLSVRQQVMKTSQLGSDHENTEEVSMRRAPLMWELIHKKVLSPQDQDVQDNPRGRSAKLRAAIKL
The series is described as follows: isothermal titration calorimetry. The class given is binding. A general note: Isothermal titration calorimetry measures the heat released or taken up as one component is titrated into another.

In series [2] the target is T2, METTL15^70–407 (Homo sapiens, UniProt A6NJ78, D119A).
T2 construct: residues 70-407; N-terminal SUMO tag cleaved with ULP1; E. coli Rosetta (DE3)
T2 sequence (A6NJ78 70-407 D119A): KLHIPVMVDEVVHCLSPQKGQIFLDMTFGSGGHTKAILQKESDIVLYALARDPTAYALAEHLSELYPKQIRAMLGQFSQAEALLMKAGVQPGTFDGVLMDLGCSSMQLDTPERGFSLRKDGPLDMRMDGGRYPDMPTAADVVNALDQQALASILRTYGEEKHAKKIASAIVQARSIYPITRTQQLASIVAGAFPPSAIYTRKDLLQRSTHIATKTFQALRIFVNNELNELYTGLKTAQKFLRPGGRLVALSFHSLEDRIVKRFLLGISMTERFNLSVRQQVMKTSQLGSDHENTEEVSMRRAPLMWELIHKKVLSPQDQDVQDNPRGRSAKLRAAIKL
The series is described as follows: isothermal titration calorimetry. The class given is binding.

A further series has as its target T3, METTL15 WT (Homo sapiens, UniProt A6NJ78 70-407).
T3 sequence: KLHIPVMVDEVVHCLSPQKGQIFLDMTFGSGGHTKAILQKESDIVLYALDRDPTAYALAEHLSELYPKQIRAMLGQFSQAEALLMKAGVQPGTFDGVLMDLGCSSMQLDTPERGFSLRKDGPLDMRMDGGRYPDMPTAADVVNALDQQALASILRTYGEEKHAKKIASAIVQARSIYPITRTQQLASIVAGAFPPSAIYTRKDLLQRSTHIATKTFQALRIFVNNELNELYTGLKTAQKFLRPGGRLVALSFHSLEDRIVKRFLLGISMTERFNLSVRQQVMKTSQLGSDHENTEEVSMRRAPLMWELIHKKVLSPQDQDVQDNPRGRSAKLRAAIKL
Description: fluorescence polarization; FP: dilution buffer B (50 mM Na2HPO4, 150 mM NaCl, pH 7.0), 20 C, 15 min incubation, 80 nM FAM-RNA stock mixed 1:1 (40 nM final); 1:1 binding model. The settings on record: protein: recombinant, tags: SUMO tag removed (ULP1), label: 5'-FAM. (In general: Fluorescence polarisation rises when a labelled molecule tumbles more slowly, as on binding a larger partner.)

Series [3] addresses T4, METTL15 R327A/K330A/R331A (Homo sapiens, UniProt A6NJ78 70-407, R327A;K330A;R331A).
T4 sequence: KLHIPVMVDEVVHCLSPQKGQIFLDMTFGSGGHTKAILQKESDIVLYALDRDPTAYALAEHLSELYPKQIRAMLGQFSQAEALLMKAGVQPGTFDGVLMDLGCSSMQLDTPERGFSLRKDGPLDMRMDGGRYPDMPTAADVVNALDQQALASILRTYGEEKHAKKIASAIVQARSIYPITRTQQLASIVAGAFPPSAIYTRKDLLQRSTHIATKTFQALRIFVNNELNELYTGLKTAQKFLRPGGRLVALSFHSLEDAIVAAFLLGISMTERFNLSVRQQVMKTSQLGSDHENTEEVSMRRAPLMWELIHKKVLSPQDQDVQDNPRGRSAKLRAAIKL
The description is as above. The settings on record: protein: recombinant; tags: SUMO tag removed (ULP1); label: 5'-FAM; hairpin.

The target in the next series is T5, METTL15 K380A/K381A (Homo sapiens, UniProt A6NJ78 70-407, K380A;K381A).
T5 sequence: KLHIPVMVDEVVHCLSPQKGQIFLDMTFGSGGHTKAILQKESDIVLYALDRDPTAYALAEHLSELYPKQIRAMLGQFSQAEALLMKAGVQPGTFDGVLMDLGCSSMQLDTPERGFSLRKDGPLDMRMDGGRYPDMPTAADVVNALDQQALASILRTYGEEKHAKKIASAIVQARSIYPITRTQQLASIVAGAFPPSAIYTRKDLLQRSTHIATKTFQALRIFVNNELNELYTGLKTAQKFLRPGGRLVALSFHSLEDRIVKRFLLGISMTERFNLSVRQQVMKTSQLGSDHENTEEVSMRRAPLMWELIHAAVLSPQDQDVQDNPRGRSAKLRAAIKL
The series is described as above. The settings on record: protein: recombinant; tags: SUMO tag removed (ULP1); label: 5'-FAM; hairpin.

For series [4], the target named is T6, METTL15 F262A/P263A/K270A (Homo sapiens, UniProt A6NJ78 70-407, F262A;P263A;R270A).
T6 sequence: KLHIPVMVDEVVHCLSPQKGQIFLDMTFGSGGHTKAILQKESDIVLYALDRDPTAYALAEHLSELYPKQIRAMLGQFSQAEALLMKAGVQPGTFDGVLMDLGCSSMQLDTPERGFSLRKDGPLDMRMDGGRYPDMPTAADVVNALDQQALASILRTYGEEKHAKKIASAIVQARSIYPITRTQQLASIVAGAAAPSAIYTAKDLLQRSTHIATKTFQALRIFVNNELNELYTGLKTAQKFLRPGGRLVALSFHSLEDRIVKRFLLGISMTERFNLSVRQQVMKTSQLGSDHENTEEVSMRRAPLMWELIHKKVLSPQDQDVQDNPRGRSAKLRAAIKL
The series is described as above. The note with it: protein: recombinant; tags: SUMO tag removed (ULP1); label: 5'-FAM; hairpin.

For series [5], the target named is T7, METTL15 H231A/K234A/F262A (Homo sapiens, UniProt A6NJ78 70-407, H231A;K234A;F262A).
T7 sequence: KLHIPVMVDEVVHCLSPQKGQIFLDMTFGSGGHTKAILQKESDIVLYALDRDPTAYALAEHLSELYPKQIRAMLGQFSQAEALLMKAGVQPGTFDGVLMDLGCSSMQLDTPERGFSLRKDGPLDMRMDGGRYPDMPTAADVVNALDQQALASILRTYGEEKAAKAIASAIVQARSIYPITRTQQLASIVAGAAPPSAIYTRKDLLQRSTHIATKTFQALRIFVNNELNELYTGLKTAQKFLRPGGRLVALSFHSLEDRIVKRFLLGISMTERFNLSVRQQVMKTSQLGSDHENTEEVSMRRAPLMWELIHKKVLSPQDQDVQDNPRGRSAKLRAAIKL
The series is described as above. The settings on record: protein: recombinant; tags: SUMO tag removed (ULP1); label: 5'-FAM; hairpin.

Series [6] deals with T8, METTL15 WT;hsRBFA C-terminal helix (Homo sapiens;Homo sapiens, UniProt A6NJ78;Q8N0V3 70-407;226-260, |).
T8 sequence 1: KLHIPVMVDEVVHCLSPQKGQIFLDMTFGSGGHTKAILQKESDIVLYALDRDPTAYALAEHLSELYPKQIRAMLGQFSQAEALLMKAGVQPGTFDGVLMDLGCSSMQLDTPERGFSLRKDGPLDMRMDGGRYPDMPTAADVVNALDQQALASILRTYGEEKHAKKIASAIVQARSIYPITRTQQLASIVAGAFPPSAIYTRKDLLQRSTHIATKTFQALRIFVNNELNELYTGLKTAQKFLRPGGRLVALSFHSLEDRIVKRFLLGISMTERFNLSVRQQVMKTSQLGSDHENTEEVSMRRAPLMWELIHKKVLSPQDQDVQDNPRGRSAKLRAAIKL
T8 sequence 2: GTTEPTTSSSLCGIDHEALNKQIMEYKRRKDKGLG
The series is described as follows: fluorescence polarization; +hsRBFA 226-260; FP: dilution buffer B (50 mM Na2HPO4, 150 mM NaCl, pH 7.0), 20 C, 15 min incubation, 80 nM FAM-RNA stock mixed 1:1 (40 nM final); 1:1 binding model. The settings on record: protein: recombinant;recombinant, tags: SUMO tag removed (ULP1);GST tag removed (TEV), copies: 1;1, label: 5'-FAM.

The target of series [7] is METTL15^70–407 (human METTL15, residues 70–407), wild type (human, UniProt A6NJ78 70-407). Description: ITC; Microcal PEAQ-ITC, 20 °C, buffer B (50 mM Na2HPO4, 150 mM NaCl, pH 7.0); hsRBFA 600 μM and METTL15 40 μM; single binding site model. The settings on record: both partners purified.
The next series addresses METTL15^70–407 D209A (human, UniProt A6NJ78 70-407, D209A). The series is described as above. The settings on record: both partners purified.
Another series has as its target METTL15^70–407 N212A (human, UniProt A6NJ78 70-407, N212A). The series is described as above. The settings on record: both partners purified.

`C[S+](CC[C@H](N)C(=O)O)C[C@H]1O[C@@H](n2cnc3c(N)ncnc32)[C@H](O)[C@@H]1O` (some centres unmarked) [SAM]: the dissociation constant Kd is 2990 ± 360 nM on METTL15^70–407 [1] and 17300 ± 310 nM on METTL15^70–407 [2].
Turning to CGACACCGCCCGUAACGGUGUCG (structured_RNA) [5'-FAM-h44_dsRNA4], in the series with METTL15 WT (hairpin), the dissociation constant (Kd) was 2330 ± 130 nM.
Take CGACCGCCCGUAACGGUCG (structured_RNA) [5'-FAM-h44_dsRNA1]: the Kd in the series with METTL15 WT (hairpin) was found to be 1100 ± 90 nM; in [3] it was 1030 ± 150 nM; with METTL15 K380A/K381A it was 2680 ± 290 nM; in series [6] (hairpin), 1150 ± 80 nM. Also, the binding result in series [4] and in series [5] was “no binding” in each case.
Turning to CACACCGCCCGUCAC (ssRNA) [5'-FAM-h44_ssRNA3], the values for the Kd (in the series with METTL15 WT; in series [6]) were 2200 ± 330 nM and 1760 ± 160 nM, respectively.
CGACCGGAAGCGGUCG (structured_RNA) [5'-FAM-h44_dsRNA2]: the equilibrium dissociation constant (Kd) in the series with METTL15 WT (hairpin) was 770 ± 50 nM.
As for GTTEPTTSSSLCGIDHEALNKAIMEYKRRKDKGLG (domain or fragment, human, UniProt Q8N0V3 226-260, looked up) [hsRBFA^226–260 Q247A], in [7], the dissociation constant (Kd) is 410 nM and the dH is -11.5 ± 0.2 kcal/mol.
GTTEPTTSSSLCGIDHEALNKQIMEYARRKDKGLG (domain or fragment, human, UniProt Q8N0V3 226-260, looked up) [hsRBFA^226–260 K252A]: in series [7], the affinity, expressed as Kd, was 19600 nM and the dH is -17.2 ± 3.1 kcal/mol.
As for GTTEPTTSSSLCGIDHEALNKQIMEYKRRKDKGLG (domain or fragment, UniProt Q8N0V3 226-260, looked up) [hsRBFA^226–260 (human hsRBFA, residues 226–260), wild type], in the series with METTL15^70–407 D209A, binding was characterised by a dissociation constant (Kd) of 7940 nM and the dH is -7.43 ± 0.32 kcal/mol. Further, in the series with METTL15^70–407 N212A, the affinity, expressed as Kd, was 1120 nM and the dH was -9.5 ± 0.34 kcal/mol.
On to GTTEPTTSSSLCGIDHEALAKQIMEYKRRKDKGLG (domain or fragment, human, UniProt Q8N0V3 226-260, looked up) [hsRBFA^226–260 N245A], for which, in [7], the Kd was 610 nM and the dH is -10.6 ± 0.2 kcal/mol.
As for AAAAAAAAAAAAA (ssRNA) [5'-FAM-polyA13], the equilibrium dissociation constant (Kd) with METTL15 WT turned out to be 610 ± 110 nM.
